# Earlier results as cited in article PMC11596140.
# pKd: −log10 of the molar value.
# Target: Cdc4 (Saccharomyces cerevisiae) (UniProt P07834)
# Experiment: intrinsic Trp fluorescence
# UniProt P07834, sequence (P07834 whole entry): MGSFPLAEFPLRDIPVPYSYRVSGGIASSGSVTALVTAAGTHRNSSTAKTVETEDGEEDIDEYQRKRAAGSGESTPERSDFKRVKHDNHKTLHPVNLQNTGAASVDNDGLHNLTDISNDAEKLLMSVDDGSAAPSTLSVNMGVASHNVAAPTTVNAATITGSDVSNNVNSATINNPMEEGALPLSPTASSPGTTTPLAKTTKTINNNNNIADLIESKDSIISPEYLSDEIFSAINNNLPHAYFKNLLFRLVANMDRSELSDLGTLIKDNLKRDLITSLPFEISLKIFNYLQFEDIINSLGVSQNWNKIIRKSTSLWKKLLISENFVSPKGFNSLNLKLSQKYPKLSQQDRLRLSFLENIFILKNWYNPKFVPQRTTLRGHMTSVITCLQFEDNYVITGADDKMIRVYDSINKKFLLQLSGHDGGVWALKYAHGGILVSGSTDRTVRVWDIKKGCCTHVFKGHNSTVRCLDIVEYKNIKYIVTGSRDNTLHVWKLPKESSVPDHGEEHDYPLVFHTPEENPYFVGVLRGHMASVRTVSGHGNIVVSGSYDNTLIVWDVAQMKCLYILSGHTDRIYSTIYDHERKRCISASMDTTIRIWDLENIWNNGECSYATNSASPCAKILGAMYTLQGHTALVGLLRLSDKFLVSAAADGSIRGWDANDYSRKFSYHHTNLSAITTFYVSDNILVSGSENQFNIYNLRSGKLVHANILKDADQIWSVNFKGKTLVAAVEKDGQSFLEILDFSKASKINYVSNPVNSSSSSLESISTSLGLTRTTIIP
substance,measurement,value
Sic1 (from UniProt P38634),pKd,6.22
